*1 amine or outer side, *2 acyl side, *3 side chain or, on linkers, in order; H or OH if unused. Where no end group is shown, it is not given here. Side-chain parts run from the residue outwards. [ ]: non-standard residue; d: D form. The star is where a group is joined. γGlu = O=C(O)[C@H](CCC(=O)[*:2])N[*:1]; Stearoyl = CCCCCCCCCCCCCCCCCC(=O)*; Palmitoyl = CCCCCCCCCCCCCCCC(=O)*; Aib = CC(C)(N)C(=O)O
B1: SEQ ID NO: 25 (peptide)
peptide: Y[Aib]EGTFTSDLSIQK([γGlu-Palmitoyl])ESRAAQEFIEWLKNTGPSSGAPPPS-NH2
modifications: N-terminus assumed
SMILES: CCCCCCCCCCCCCCCC(=O)N[C@@H](CCC(=O)NCCCC[C@H](NC(=O)[C@H](CCC(N)=O)NC(=O)[C@@H](NC(=O)[C@H](CO)NC(=O)[C@H](CC(C)C)NC(=O)[C@H](CC(=O)O)NC(=O)[C@H](CO)NC(=O)[C@@H](NC(=O)[C@H](Cc1ccccc1)NC(=O)[C@@H](NC(=O)CNC(=O)[C@H](CCC(=O)O)NC(=O)C(C)(C)NC(=O)[C@@H](N)Cc1ccc(O)cc1)[C@@H](C)O)[C@@H](C)O)[C@@H](C)CC)C(=O)N[C@@H](CCC(=O)O)C(=O)N[C@@H](CO)C(=O)N[C@@H](CCCNC(=N)N)C(=O)N[C@@H](C)C(=O)N[C@@H](C)C(=O)N[C@@H](CCC(N)=O)C(=O)N[C@@H](CCC(=O)O)C(=O)N[C@@H](Cc1ccccc1)C(=O)N[C@H](C(=O)N[C@@H](CCC(=O)O)C(=O)N[C@@H](Cc1c[nH]c2ccccc12)C(=O)N[C@@H](CC(C)C)C(=O)N[C@@H](CCCCN)C(=O)N[C@@H](CC(N)=O)C(=O)N[C@H](C(=O)NCC(=O)N1CCC[C@H]1C(=O)N[C@@H](CO)C(=O)N[C@@H](CO)C(=O)NCC(=O)N[C@@H](C)C(=O)N1CCC[C@H]1C(=O)N1CCC[C@H]1C(=O)N1CCC[C@H]1C(=O)N[C@@H](CO)C(N)=O)[C@@H](C)O)[C@@H](C)CC)C(=O)O
B2: SEQ ID NO: 26 (peptide)
peptide: Y[Aib]EGTFTSDLSIQK([γGlu-Palmitoyl])EKRAAQEFIEWLKNTGPSSGAPPPS-NH2
modifications: N-terminus assumed
SMILES: CCCCCCCCCCCCCCCC(=O)N[C@@H](CCC(=O)NCCCC[C@H](NC(=O)[C@H](CCC(N)=O)NC(=O)[C@@H](NC(=O)[C@H](CO)NC(=O)[C@H](CC(C)C)NC(=O)[C@H](CC(=O)O)NC(=O)[C@H](CO)NC(=O)[C@@H](NC(=O)[C@H](Cc1ccccc1)NC(=O)[C@@H](NC(=O)CNC(=O)[C@H](CCC(=O)O)NC(=O)C(C)(C)NC(=O)[C@@H](N)Cc1ccc(O)cc1)[C@@H](C)O)[C@@H](C)O)[C@@H](C)CC)C(=O)N[C@@H](CCC(=O)O)C(=O)N[C@@H](CCCCN)C(=O)N[C@@H](CCCNC(=N)N)C(=O)N[C@@H](C)C(=O)N[C@@H](C)C(=O)N[C@@H](CCC(N)=O)C(=O)N[C@@H](CCC(=O)O)C(=O)N[C@@H](Cc1ccccc1)C(=O)N[C@H](C(=O)N[C@@H](CCC(=O)O)C(=O)N[C@@H](Cc1c[nH]c2ccccc12)C(=O)N[C@@H](CC(C)C)C(=O)N[C@@H](CCCCN)C(=O)N[C@@H](CC(N)=O)C(=O)N[C@H](C(=O)NCC(=O)N1CCC[C@H]1C(=O)N[C@@H](CO)C(=O)N[C@@H](CO)C(=O)NCC(=O)N[C@@H](C)C(=O)N1CCC[C@H]1C(=O)N1CCC[C@H]1C(=O)N1CCC[C@H]1C(=O)N[C@@H](CO)C(N)=O)[C@@H](C)O)[C@@H](C)CC)C(=O)O
B3: SEQ ID NO: 24 (peptide)
peptide: Y[Aib]EGTFTSDLSIQK([γGlu-Palmitoyl])ESRAA[Aib]DFIEWLKNTGPSSGAPPPS-NH2
modifications: N-terminus assumed
SMILES: CCCCCCCCCCCCCCCC(=O)N[C@@H](CCC(=O)NCCCC[C@H](NC(=O)[C@H](CCC(N)=O)NC(=O)[C@@H](NC(=O)[C@H](CO)NC(=O)[C@H](CC(C)C)NC(=O)[C@H](CC(=O)O)NC(=O)[C@H](CO)NC(=O)[C@@H](NC(=O)[C@H](Cc1ccccc1)NC(=O)[C@@H](NC(=O)CNC(=O)[C@H](CCC(=O)O)NC(=O)C(C)(C)NC(=O)[C@@H](N)Cc1ccc(O)cc1)[C@@H](C)O)[C@@H](C)O)[C@@H](C)CC)C(=O)N[C@@H](CCC(=O)O)C(=O)N[C@@H](CO)C(=O)N[C@@H](CCCNC(=N)N)C(=O)N[C@@H](C)C(=O)N[C@@H](C)C(=O)NC(C)(C)C(=O)N[C@@H](CC(=O)O)C(=O)N[C@@H](Cc1ccccc1)C(=O)N[C@H](C(=O)N[C@@H](CCC(=O)O)C(=O)N[C@@H](Cc1c[nH]c2ccccc12)C(=O)N[C@@H](CC(C)C)C(=O)N[C@@H](CCCCN)C(=O)N[C@@H](CC(N)=O)C(=O)N[C@H](C(=O)NCC(=O)N1CCC[C@H]1C(=O)N[C@@H](CO)C(=O)N[C@@H](CO)C(=O)NCC(=O)N[C@@H](C)C(=O)N1CCC[C@H]1C(=O)N1CCC[C@H]1C(=O)N1CCC[C@H]1C(=O)N[C@@H](CO)C(N)=O)[C@@H](C)O)[C@@H](C)CC)C(=O)O
B4: SEQ ID NO: 23 (peptide)
peptide: Y[Aib]EGTFTSDLSIQK([γGlu-Palmitoyl])ESRAAQDFIEWLKNTGPSSGAPPPS-NH2
modifications: N-terminus assumed
SMILES: CCCCCCCCCCCCCCCC(=O)N[C@@H](CCC(=O)NCCCC[C@H](NC(=O)[C@H](CCC(N)=O)NC(=O)[C@@H](NC(=O)[C@H](CO)NC(=O)[C@H](CC(C)C)NC(=O)[C@H](CC(=O)O)NC(=O)[C@H](CO)NC(=O)[C@@H](NC(=O)[C@H](Cc1ccccc1)NC(=O)[C@@H](NC(=O)CNC(=O)[C@H](CCC(=O)O)NC(=O)C(C)(C)NC(=O)[C@@H](N)Cc1ccc(O)cc1)[C@@H](C)O)[C@@H](C)O)[C@@H](C)CC)C(=O)N[C@@H](CCC(=O)O)C(=O)N[C@@H](CO)C(=O)N[C@@H](CCCNC(=N)N)C(=O)N[C@@H](C)C(=O)N[C@@H](C)C(=O)N[C@@H](CCC(N)=O)C(=O)N[C@@H](CC(=O)O)C(=O)N[C@@H](Cc1ccccc1)C(=O)N[C@H](C(=O)N[C@@H](CCC(=O)O)C(=O)N[C@@H](Cc1c[nH]c2ccccc12)C(=O)N[C@@H](CC(C)C)C(=O)N[C@@H](CCCCN)C(=O)N[C@@H](CC(N)=O)C(=O)N[C@H](C(=O)NCC(=O)N1CCC[C@H]1C(=O)N[C@@H](CO)C(=O)N[C@@H](CO)C(=O)NCC(=O)N[C@@H](C)C(=O)N1CCC[C@H]1C(=O)N1CCC[C@H]1C(=O)N1CCC[C@H]1C(=O)N[C@@H](CO)C(N)=O)[C@@H](C)O)[C@@H](C)CC)C(=O)O
B5: SEQ ID NO: 22 (peptide)
peptide: Y[Aib]EGTFTSDLSIQK([γGlu-Palmitoyl])DSRAAQDFIEWLKAGGPSSGAPPPS-NH2
modifications: N-terminus assumed
SMILES: CCCCCCCCCCCCCCCC(=O)N[C@@H](CCC(=O)NCCCC[C@H](NC(=O)[C@H](CCC(N)=O)NC(=O)[C@@H](NC(=O)[C@H](CO)NC(=O)[C@H](CC(C)C)NC(=O)[C@H](CC(=O)O)NC(=O)[C@H](CO)NC(=O)[C@@H](NC(=O)[C@H](Cc1ccccc1)NC(=O)[C@@H](NC(=O)CNC(=O)[C@H](CCC(=O)O)NC(=O)C(C)(C)NC(=O)[C@@H](N)Cc1ccc(O)cc1)[C@@H](C)O)[C@@H](C)O)[C@@H](C)CC)C(=O)N[C@@H](CC(=O)O)C(=O)N[C@@H](CO)C(=O)N[C@@H](CCCNC(=N)N)C(=O)N[C@@H](C)C(=O)N[C@@H](C)C(=O)N[C@@H](CCC(N)=O)C(=O)N[C@@H](CC(=O)O)C(=O)N[C@@H](Cc1ccccc1)C(=O)N[C@H](C(=O)N[C@@H](CCC(=O)O)C(=O)N[C@@H](Cc1c[nH]c2ccccc12)C(=O)N[C@@H](CC(C)C)C(=O)N[C@@H](CCCCN)C(=O)N[C@@H](C)C(=O)NCC(=O)NCC(=O)N1CCC[C@H]1C(=O)N[C@@H](CO)C(=O)N[C@@H](CO)C(=O)NCC(=O)N[C@@H](C)C(=O)N1CCC[C@H]1C(=O)N1CCC[C@H]1C(=O)N1CCC[C@H]1C(=O)N[C@@H](CO)C(N)=O)[C@@H](C)CC)C(=O)O
B6: SEQ ID NO: 21 (peptide)
peptide: Y[Aib]EGTFTSDLSIQK([γGlu-Stearoyl])ESRAAQEFIEWLKAGGPSSGAPPPS-NH2
modifications: N-terminus assumed
SMILES: CCCCCCCCCCCCCCCCCC(=O)N[C@@H](CCC(=O)NCCCC[C@H](NC(=O)[C@H](CCC(N)=O)NC(=O)[C@@H](NC(=O)[C@H](CO)NC(=O)[C@H](CC(C)C)NC(=O)[C@H](CC(=O)O)NC(=O)[C@H](CO)NC(=O)[C@@H](NC(=O)[C@H](Cc1ccccc1)NC(=O)[C@@H](NC(=O)CNC(=O)[C@H](CCC(=O)O)NC(=O)C(C)(C)NC(=O)[C@@H](N)Cc1ccc(O)cc1)[C@@H](C)O)[C@@H](C)O)[C@@H](C)CC)C(=O)N[C@@H](CCC(=O)O)C(=O)N[C@@H](CO)C(=O)N[C@@H](CCCNC(=N)N)C(=O)N[C@@H](C)C(=O)N[C@@H](C)C(=O)N[C@@H](CCC(N)=O)C(=O)N[C@@H](CCC(=O)O)C(=O)N[C@@H](Cc1ccccc1)C(=O)N[C@H](C(=O)N[C@@H](CCC(=O)O)C(=O)N[C@@H](Cc1c[nH]c2ccccc12)C(=O)N[C@@H](CC(C)C)C(=O)N[C@@H](CCCCN)C(=O)N[C@@H](C)C(=O)NCC(=O)NCC(=O)N1CCC[C@H]1C(=O)N[C@@H](CO)C(=O)N[C@@H](CO)C(=O)NCC(=O)N[C@@H](C)C(=O)N1CCC[C@H]1C(=O)N1CCC[C@H]1C(=O)N1CCC[C@H]1C(=O)N[C@@H](CO)C(N)=O)[C@@H](C)CC)C(=O)O

Target: T1, human GIP receptor (human, UniProt P48546 22-466)
T1 sequence (looked up): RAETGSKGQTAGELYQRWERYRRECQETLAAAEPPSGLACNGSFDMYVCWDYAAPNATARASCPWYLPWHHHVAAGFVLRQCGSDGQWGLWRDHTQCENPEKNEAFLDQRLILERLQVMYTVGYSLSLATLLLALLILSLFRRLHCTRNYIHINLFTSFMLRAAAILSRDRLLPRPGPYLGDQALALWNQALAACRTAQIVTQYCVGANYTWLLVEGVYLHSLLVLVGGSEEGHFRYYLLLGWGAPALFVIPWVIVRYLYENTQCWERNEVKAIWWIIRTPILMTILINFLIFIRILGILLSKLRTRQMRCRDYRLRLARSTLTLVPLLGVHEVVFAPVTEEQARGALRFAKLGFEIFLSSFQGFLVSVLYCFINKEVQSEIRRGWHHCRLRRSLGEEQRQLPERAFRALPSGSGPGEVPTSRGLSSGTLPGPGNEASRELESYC
Assay: cell-based or functional assay

Compared with B1, B2 is lower in “EC50 hGIP R [pM]” value: 73.6 pM for the first, 19.7 pM for the second.

Compared with B3, B4 is higher in “EC50 hGIP R [pM]” value: 23.5 pM for the first, 79.5 pM for the second.

Compared with B5, B6 is lower in “EC50 hGIP R [pM]” value: 16.6 pM for the first, 6.4 pM for the second.

Target: human GLP-1 receptor (human, UniProt P43220 24-463)
Assay: cell-based or functional assay

First: B1
Second: B2
The “EC50 hGLP-1 R [pM]” value of the first is higher: 9.5 pM for the first, 4.9 pM for the second.

Going from B3 to B4, the “EC50 hGLP-1 R [pM]” value falls from 13.5 pM to 11.8 pM.

First: B5
Second: B6
The “EC50 hGLP-1 R [pM]” value of the first is higher: 32 pM for the first, 4.8 pM for the second.

Target: human glucagon receptor (human, UniProt P47871 26-477)
Assay: cell-based or functional assay

Chain of human glucagon receptor (P47871 26-477): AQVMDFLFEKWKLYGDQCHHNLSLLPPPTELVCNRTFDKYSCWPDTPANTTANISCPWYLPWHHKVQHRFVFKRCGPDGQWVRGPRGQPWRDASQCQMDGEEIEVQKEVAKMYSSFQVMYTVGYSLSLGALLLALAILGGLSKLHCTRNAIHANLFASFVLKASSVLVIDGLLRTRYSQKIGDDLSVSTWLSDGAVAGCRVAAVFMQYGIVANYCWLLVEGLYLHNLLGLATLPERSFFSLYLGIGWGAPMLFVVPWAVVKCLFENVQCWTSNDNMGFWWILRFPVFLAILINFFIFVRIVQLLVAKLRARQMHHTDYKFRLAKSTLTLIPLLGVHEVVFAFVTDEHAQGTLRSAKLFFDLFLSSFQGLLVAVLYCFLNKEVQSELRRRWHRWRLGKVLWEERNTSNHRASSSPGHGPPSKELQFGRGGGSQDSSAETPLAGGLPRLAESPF

Going from B1 to B2, the “EC50 hGLUC R [pM]” value falls from 20500 pM to 8510 pM.

Compared with B3, B4 is lower in “EC50 hGLUC R [pM]” value: 38900 pM for the first, 19100 pM for the second.

First: B5
Second: B6
The “EC50 hGLUC R [pM]” value of the first is higher: 11600 pM for the first, 10100 pM for the second.
